Where a chain is given by its changes, count along the chain named.
B1: SEQ ID NO 64 (designed binder)
chain: VSDVPRDLEVVAATPTSLLISWDAPAVTVRYYRITYGERRSHRERQEFTVPGSKSTATISRRRRRVDYTITVYAVTGRGESPASSKPISINYSRRR
B2: SEQ ID NO 67 (designed binder)
chain: VSDVPRDLEVVAATPTSLLISWDAPAVTVRYYRITYGEYYARPEYQEFTVPGSKSTATISYYEPEVDYTITVYAVTGRGESPASSKPISINYRSYP
B3: SEQ ID NO 61 (designed binder)
chain: VSDVPRDLEVVAATPTSLLISWDAPAVTVRYYRITYGEPRSEEGEQEFTVPGSKSTATISRRYSLVDYTITVYAVTGRGESPASSKPISINYYSSR
B4: SEQ ID NO 54 (designed binder)
chain: VSDVPRDLEVVAATPTSLLISWDAPAVTVRYYRITYGESLRSREGQEFTVPGSKSTATISGRQESVDYTITVYAVTGRGESPASSKPISINYGQRY
B5: SEQ ID NO 56 (designed binder)
chain: VSDVPRDLEVVAATPTSLLISWDAPAVTVRYYRITYGEYLYHHGQEFTVPGSKSTATISYRSAPVDYTITVYAVTGRGESPASSKPISINYRHER
B6: SEQ ID NO 52 (designed binder)
chain: VSDVPRDLEVVAATPTSLLISWDAPAVTVRYYRITYGESSRSPRGQEFTVPGSKSTATISRAEYRVDYTITVYAVTGRGESPASSKPISINYYLRQ
B7: SEQ ID NO 53 (designed binder)
chain: B6 chain with R41P, S42E, P43Y, R61L, A62E, R65E, A83T, Y93Q, L94Y, Q96Y
B8: SEQ ID NO 50 (designed binder)
chain: VSDVPRDLEVVAATPTSLLISWDAPAVTVRYYRITYGESLYYHQEFTVPGSKSTATISASYYAVDYTITVYAVTGRGESPASSKPISINYSYHL
B9: SEQ ID NO 70 (designed binder)
chain: VSDVPRDLEVVAATPTSLLISWDAPAVTVRYYRITYGESHQGLSYQEFTVPGSKSTATISPGSSSVDYTITVYAVTGRGESPASSKPISINYRYYR
B10: SEQ ID NO 63 (designed binder)
chain: VSDVPRDLEVVAATPTSLLISWDAPAVTVRYYRITYGERERQHGYQEFTVPGSKSTATISRYRRRVDYTITVYAVTGRGESPASSKPISINYEPGY
B11: SEQ ID NO 44 (designed binder)
chain: VSDVPRDLEVVAATPTSLLISWDAPAVTVRYYRITYGESSLGSEQEFTVPGSKSTATISEYAPYVDYTITVYAVTGRGESPASSKPISINYYGPG
B12: SEQ ID NO 45 (designed binder)
chain: VSDVPRDLEVVAATPTSLLISWDAPAVTVRYYRITYGEQAQEEGQEFTVPDSKSTATISAHRSYVDYTITVYAVTGRGESPASSKPISINYYYGE
B13: SEQ ID NO 55 (designed binder)
chain: VSDVPRDLEVVAATPTSLLISWDAPAVTVRYYRITYGEGQGAGASQEFTVPGSKSTATISGAEPAVDYTITVYAVTGRGESPASSKPISINYGPRY
B14: SEQ ID NO 60 (designed binder)
chain: VSDVPRDLEVVAATPTSLLISWDAPAVTVRYYRITYGEYRYAYAYGQEFTVPGSKSTATISRSSPRVDYTITVYAVTGRGESPASSKPISINYPRRY
B15: SEQ ID NO 66 (designed binder)
chain: VSDVPRDLEVVAATPTSLLISWDAPAVTVRYYRITYGEYYRSYYQEFTVPGSKSTATISSYEPPVDYTITVYAVTGRGESPASSKPISINYRRYL
B16: SEQ ID NO 80 (designed binder)
chain: B15 chain with Y39S, Y40R, Y44P, Y61S, E62H, P63R, P64S, R93S
B17: SEQ ID NO 71 (designed binder)
chain: VSDVPRDLEVVAATPTSLLISWDAPAVTVRYYRITYGERGSGLGYQEFTVPGSKSTATISSRAYRVDYTITVYAVTGRGESPASSKPISINYALYE
B18: SEQ ID NO 58 (designed binder)
chain: VSDVPRDLEVVAATPTSLLISWDAPAVTVRYYRITYGESSHGRSQEFTVPGSKSTATISSSSSRVDYTITVYAVTGRGESPASSKPISINYGYRG
B19: SEQ ID NO 59 (designed binder)
chain: B18 chain with S39Y, S40G, H41Y, G42S, S60Y, S63P, Y93S, G95Y
B20: SEQ ID NO 49 (designed binder)
chain: VSDVPRDLEVVAATPTSLLISWDAPAVTVRYYRITYGERGSEAERQEFTVPGSKSTATISQAYYGVDYTITVYAVTGRGESPASSKPISINYSYAS
B21: SEQ ID NO 46 (designed binder)
chain: VSDVPRDLEVVAATPTSLLISWDAPAVTVRYYRITYGEYRSYRSERQEFTVPGSKSTATISRGYRAVDYTITVYAVTGRGESPASSKPISINYSYRY
B22: SEQ ID NO 62 (designed binder)
chain: VSDVPRDLEVVAATPTSLLISWDAPAVTVRYYRITYGEAASSRLRQEFTVPGSKSTATISSYSGLVDYTITVYAVTGRGESPASSKPISINYYSSY
B23: SEQ ID NO 48 (designed binder)
chain: VSDVPRDLEVVAATPTSLLISWDAPAVTVRYYRITYGEQSGLSEHQEFTVPGSKSTATISSLRYYVDYTITVYAVTGRGESPASSKPISINYAYEY
B24: SEQ ID NO 43 (designed binder)
chain: VSDVPRDLEVVAATPTSLLISWDAPAVTVRYYRITYGEEAYRSEGQEFTVPGSKSTATISSYGQGVDYTITVYAVTGRGESPASSKPISINYEGSE
B25: SEQ ID NO 65 (designed binder)
chain: VSDVPRDLEVVAATPTSLLISWDAPAVTVRYYRITYGERLREGGSQEFTVPGSKSTATISRAGERVDYTITVYAVTGRGESPASSKPISINYAQYP
B26: SEQ ID NO 69 (designed binder)
chain: VSDVPRDLEVVAATPTSLLISWDAPAVTVRYYRITYGEYRSSSYYQEFTVPGSKSTATISYPSERVDYTITVYAVTGRGESPASSKPISINYQSSA
B27: SEQ ID NO 57 (designed binder)
chain: VSDVPRDLEVVAATPTSLLISWDAPAVTVRYYRITYGEGSLLYHSQEFTVPGSKSTATISYGPASVDYTITVYAVTGRGESPASSKPISINYRRRY
B28: SEQ ID NO 47 (designed binder)
chain: VSDVPRDLEVVAATPTSLLISWDAPAVTVRYYRITYGEERGYERSRQEFTVPGSKSTATISESYRYVDYTITVYAVTGRGESPASSKPISINYPHSY

Molecular target: T1, hen egg white lysozyme (hen, UniProt P00698 19-147, biotinylated (HEL-b); sites not stated)
T1 construct: also called lyzozyme; HEL-b (biotinylated)
T1 sequence (P00698 19-147 limits assumed): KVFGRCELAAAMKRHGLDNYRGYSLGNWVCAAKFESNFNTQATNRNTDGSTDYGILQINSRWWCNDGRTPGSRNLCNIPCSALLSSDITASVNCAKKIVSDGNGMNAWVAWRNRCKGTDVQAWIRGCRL
Assay: yeast display selection

Row | binding result | Binder
1 | binds | B1
2 | binds | B2
3 | binds | B3
4 | binds | B4
5 | binds | B5
6 | binds | B6
7 | binds | B7
8 | binds | B8
9 | binds | B9
10 | binds | B10
11 | binds | B11
12 | binds | B12
13 | binds | B13
14 | binds | B14
15 | binds | B15
16 | binds | B16
17 | binds | B17
18 | binds | B18
19 | binds | B19
20 | binds | B20
21 | binds | B21
22 | binds | B22
23 | binds | B23
24 | binds | B24
25 | binds | B25
26 | binds | B26
27 | binds | B27
28 | binds | B28

Reference: patent US9296810 (Novartis, dated 2016)
